Experimental findings from PMC5986272, “Biosynthetic tailoring of existing ascaroside pheromones alters their biological function in C. elegans” (eLife, 2018) are described below.

The term Km denotes the substrate concentration at which the rate is half of its maximum. Usually kcat stands for the number of substrate molecules converted per active site and unit of time at saturation.

The target of one data set is T1, ACOX-1.1 (Caenorhabditis elegans, UniProt O62140).
T1 construct: pET-16b-acox-1.1a, expressed in E. coli and purified, homodimer
T1 sequence (O62140 1-674): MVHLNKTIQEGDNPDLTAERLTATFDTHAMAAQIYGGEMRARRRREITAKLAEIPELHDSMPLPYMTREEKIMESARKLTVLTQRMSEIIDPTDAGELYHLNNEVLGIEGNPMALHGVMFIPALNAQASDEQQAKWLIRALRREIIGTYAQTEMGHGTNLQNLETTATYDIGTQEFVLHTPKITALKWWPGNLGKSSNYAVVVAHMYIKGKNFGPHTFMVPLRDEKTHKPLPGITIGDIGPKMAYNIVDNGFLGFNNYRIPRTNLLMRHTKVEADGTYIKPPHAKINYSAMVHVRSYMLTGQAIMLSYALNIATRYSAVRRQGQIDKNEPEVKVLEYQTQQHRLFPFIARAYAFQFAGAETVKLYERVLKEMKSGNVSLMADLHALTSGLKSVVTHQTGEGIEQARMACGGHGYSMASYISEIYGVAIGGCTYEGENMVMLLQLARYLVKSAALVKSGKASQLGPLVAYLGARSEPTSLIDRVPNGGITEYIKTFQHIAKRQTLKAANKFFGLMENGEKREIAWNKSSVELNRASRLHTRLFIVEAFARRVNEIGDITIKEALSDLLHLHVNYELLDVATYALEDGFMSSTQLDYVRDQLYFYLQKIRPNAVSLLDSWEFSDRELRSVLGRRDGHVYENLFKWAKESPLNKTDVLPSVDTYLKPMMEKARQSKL
The data set can be described thus: LC-MS assay with MAOC-1, DHS-28, DAF-22; peroxidase-coupled H2O2 assay. As to conditions: LC-MS: 40 μM substrate, 20 μM FAD, 20 μM NAD+, 200 μM CoA, pH 7.5, 30 °C; coupled: 24 µM substrate, ~23 °C. The format is biochemical.

Substrate in the data set “purified protein”: C[C@H](CCCCCCC(=O)O)O[C@@H]1O[C@@H](C)[C@H](OC(=O)c2c[nH]c3ccccc23)C[C@H]1O
The data set can be described thus: purified protein. It counts as biochemical, Caenorhabditis elegans. To be noted: 7.5 mM ATP, 1 mM CoA, 10 mM MgCl2, 1.6 mM Triton X-100, pH 7.4, 22 °C.

For the molecule `C[C@H](CCCCCCC(=O)SCCNC(=O)CCNC(=O)[C@H](O)C(C)(C)COP(=O)(O)OP(=O)(O)OC[C@H]1O[C@@H](n2cnc3c(N)ncnc32)[C@H](O)[C@@H]1OP(=O)(O)O)O[C@@H]1O[C@@H](C)[C@H](OC(=O)c2c[nH]c3ccccc23)C[C@H]1O` [IC-asc-C9-CoA], at ACOX-1.1, the “LC-MS assay with MAOC-1, DHS-28, DAF-22; peroxidase-coupled H2O2 assay” value is given as “It also showed activity towards IC-asc-C9-CoA, but less than towards IC-asc-C7-CoA”.

B1: ACS-7 (Caenorhabditis elegans) (protein)
chain: MIFHGEQLENHDKPVHEVLLERFKVHQEKDPDNVAFVTAENEDDSLGFQQLGKKVLQISEWFVENGYKKGDVFLLASYNNWRCFAAALGAWRAGLIVSAAASQFTSFEMNYQIEDSQSQVILVDKHTLPVVQEACKNLKFVKQIISISANPPSPVIKFDVLTSRLVRNLKMPLIDPKNDIVFLPYSSGTTGKPKGVMISHLNFSMMLESSLRFFDANAKAIGLPPDFVLPYDLHFLPMYHAMGMFRTLLTSYRGTTQIMFTKFDMELMLKNIEKYSIMVLSLVPAIAVRMLNSPLLQKYDVSSLVSVTVGSAPFPESASKKLKQLLPNVNIVQGYGMTELTFATHLQSPGSPDGSVGRLVPGTSMKVKKEDGTLCGPHEIGELWIKGPQMMKGYWKKEQQTNELLDEHGFMRTGDIVYFDKNGETFICDRIKELIKVNAKQVAPAELESVILEHDDVADVCVFGVDDASSGERPVACVVSKRGRDMETSKAIMKHINQKLARYKHIKEIEFVSEIMRTGTGKLLRRAMKKAFLDAKKAKL
notes: full-length from cDNA library, pET-22b (NdeI/XhoI), His-tagged, E. coli BL21(DE3), Ni-NTA and Superdex 200
On to B1, for which, in “purified protein”, the Km came to 14.5 ± 3.0 µM and the kcat came out at 0.53 ± 0.08 s⁻¹.
